Assays:
[1] = compound: CCSc1nc2c(N)ncnc2n1[C@@H]1O[C@H](COP(=O)(O)O)[C@@H](O)[C@H]1O; test: Inhibitory constant of rat adenylate kinase (AK II) isozymes expressed as relative maximal velocity
[2] = compound: CC(=O)NCCCCCCCCNc1ncnc2c1ncn2C1O[C@H](COP(=O)(O)O)[C@@H](O)[C@H]1O; test: (§1) Inhibitory constant of rat adenylate kinase (AK III) isozymes expressed as relative maximal velocity
[3] = compound: CCCCN(CCCC)c1ncnc2c1ncn2C1O[C@H](COP(=O)(O)OP(=O)(O)OP(=O)(O)O)[C@@H](O)[C@H]1O; test: as §1
[4] = compound: CCCCNc1ncnc2c1ncn2C1O[C@H](COP(=O)(O)OP(=O)(O)OP(=O)(O)O)[C@@H](O)[C@H]1O; test: as §1
[5] = compound: CCCCSc1ncnc2c1ncn2C1O[C@H](COP(=O)(O)OP(=O)(O)OP(=O)(O)O)[C@@H](O)[C@H]1O; test: as §1
[6] = compound: Nc1ncnc2c1ncn2[C@@H]1O[C@H](COP(=O)(O)O)[C@@H](O)[C@H]1O; test: as §1
[7] = compound: O=C(CI)NCCCCCNc1ncnc2c1ncn2C1O[C@H](COP(=O)(O)OP(=O)(O)OP(=O)(O)O)[C@@H](O)[C@H]1O; test: as §1
[8] = substrate: CC(=O)NCCNc1ncnc2c1ncn2C1O[C@H](COP(=O)(O)O)[C@@H](O)[C@H]1O; test: Rat Adenylate kinase III and maximal velocity was determined
[9] = substrate: CCCCNc1ncnc2c1ncn2C1O[C@H](COP(=O)(O)OP(=O)(O)OP(=O)(O)O)[C@@H](O)[C@H]1O; test: (§2) Concentration for half-maximal velocity for adenylate kinase (AK III) was determined
[10] = substrate: CCCCSc1ncnc2c1ncn2C1O[C@H](COP(=O)(O)OP(=O)(O)OP(=O)(O)O)[C@@H](O)[C@H]1O; test: as §2
[11] = substrate: Nc1ncnc2c1ncn2[C@@H]1O[C@H](COP(=O)(O)O)[C@@H](O)[C@H]1O; test: as §2
[12] = substrate: O=C(CI)NCCCCCNc1ncnc2c1ncn2C1O[C@H](COP(=O)(O)OP(=O)(O)OP(=O)(O)O)[C@@H](O)[C@H]1O; test: as §2

B1: GTP:AMP phosphotransferase AK3, mitochondrial (Rattus norvegicus), P29411 (protein)
chain: MGASGRLLRAVIMGAPGSGKGTGSSRITKHFELKHLSSGDLLRQNMLQGTEIAVLAKSFIDQGKLIPDDDMTRLALHELKNLTQCSWLLDGFPRTLPQAEALDRVYQIDTVINLNVPFEVIKLRLTARWIHPASGRVYNIEFNPPKTVGIDDLTGEPLIQREDDKPETVIKRLKAYEAQTEPVLQYYQKKGVLETFSGTETNKIRPHVYSFLQMKVPETIQKASVTP
[1]
  Vmax: 0%
[2]
  Vmax: 0%
[3]
  Vmax: 0%
[4]
  Vmax: 25%
[5]
  Vmax: 57%
[6]
  Vmax: 100%
[7]
  Vmax: 9%
[8]
  Vmax: 0%
[9]
  Km: 1200 µM
[10]
  Km: 1450 µM
[11]
  Km: 90 µM
[12]
  Km: 400 µM

Source: ChEMBL document CHEMBL1122067, “Species- or isozyme-specific enzyme inhibitors. 4. Design of a two-site inhibitor of adenylate kinase with isozyme selectivity” (J Med Chem, 1982)
